Data: patent US20190017997

Assays:
[1] = target: CREB (cyclic adenosine 3',5'-monophosphate response element-binding protein), P16220
[2] = target: T1, CRTC1 (CREB-regulated transcription coactivator 1)
T1 chain: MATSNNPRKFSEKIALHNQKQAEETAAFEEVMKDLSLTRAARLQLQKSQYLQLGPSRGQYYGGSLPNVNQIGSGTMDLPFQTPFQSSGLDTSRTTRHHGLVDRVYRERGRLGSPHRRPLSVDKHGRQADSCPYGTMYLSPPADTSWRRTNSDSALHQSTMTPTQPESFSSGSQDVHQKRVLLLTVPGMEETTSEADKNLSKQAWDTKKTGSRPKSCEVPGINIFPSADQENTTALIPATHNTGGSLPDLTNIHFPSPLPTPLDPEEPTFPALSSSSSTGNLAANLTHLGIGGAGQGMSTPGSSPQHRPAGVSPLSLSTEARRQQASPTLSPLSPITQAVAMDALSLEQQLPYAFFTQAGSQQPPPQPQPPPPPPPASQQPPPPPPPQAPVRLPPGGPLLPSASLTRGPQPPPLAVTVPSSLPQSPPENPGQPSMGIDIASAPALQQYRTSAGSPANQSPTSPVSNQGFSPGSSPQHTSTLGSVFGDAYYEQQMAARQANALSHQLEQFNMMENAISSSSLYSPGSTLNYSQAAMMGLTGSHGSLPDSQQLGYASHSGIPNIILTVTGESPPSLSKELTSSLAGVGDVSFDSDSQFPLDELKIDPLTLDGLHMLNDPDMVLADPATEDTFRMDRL

CRTC1 S151A/S215A = target: T2, CRTC1 S151A/S215A
T2 chain: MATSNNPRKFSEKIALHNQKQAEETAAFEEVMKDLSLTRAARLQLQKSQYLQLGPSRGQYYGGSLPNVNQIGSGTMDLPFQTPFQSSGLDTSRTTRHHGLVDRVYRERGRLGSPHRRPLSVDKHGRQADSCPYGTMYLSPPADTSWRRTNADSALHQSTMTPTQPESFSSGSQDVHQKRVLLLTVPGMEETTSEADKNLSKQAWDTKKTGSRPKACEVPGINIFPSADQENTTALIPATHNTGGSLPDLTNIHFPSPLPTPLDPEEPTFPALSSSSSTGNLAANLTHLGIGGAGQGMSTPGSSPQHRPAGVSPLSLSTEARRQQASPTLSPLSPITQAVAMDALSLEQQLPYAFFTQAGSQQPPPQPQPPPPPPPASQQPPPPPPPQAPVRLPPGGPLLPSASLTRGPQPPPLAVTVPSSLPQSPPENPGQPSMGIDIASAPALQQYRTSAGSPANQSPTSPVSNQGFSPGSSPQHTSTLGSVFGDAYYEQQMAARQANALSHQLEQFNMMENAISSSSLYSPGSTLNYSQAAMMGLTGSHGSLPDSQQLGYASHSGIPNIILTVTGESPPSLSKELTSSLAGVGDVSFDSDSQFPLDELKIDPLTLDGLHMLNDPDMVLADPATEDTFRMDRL

CRTC1 S151A/T449A = target: T3, CRTC1 S151A/T449A
T3 chain: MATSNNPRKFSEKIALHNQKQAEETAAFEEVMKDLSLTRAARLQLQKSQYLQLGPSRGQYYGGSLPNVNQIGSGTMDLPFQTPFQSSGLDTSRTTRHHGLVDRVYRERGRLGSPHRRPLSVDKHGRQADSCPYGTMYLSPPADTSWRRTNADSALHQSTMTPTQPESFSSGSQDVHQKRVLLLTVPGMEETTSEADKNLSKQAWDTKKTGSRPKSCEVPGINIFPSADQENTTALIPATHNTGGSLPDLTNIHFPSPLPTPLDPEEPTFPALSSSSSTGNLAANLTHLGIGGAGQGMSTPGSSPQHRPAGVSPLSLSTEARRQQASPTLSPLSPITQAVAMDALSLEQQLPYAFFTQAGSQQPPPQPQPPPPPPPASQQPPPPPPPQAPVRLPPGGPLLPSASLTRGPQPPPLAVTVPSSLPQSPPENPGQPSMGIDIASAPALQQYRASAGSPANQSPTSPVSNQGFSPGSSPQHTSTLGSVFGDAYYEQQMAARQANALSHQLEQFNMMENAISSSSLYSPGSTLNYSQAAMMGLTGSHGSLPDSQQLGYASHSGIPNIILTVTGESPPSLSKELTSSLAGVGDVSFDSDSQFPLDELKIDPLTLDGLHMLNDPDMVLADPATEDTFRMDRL

CRTC1 S151A = target: T4, CRTC1 S151A
T4 chain: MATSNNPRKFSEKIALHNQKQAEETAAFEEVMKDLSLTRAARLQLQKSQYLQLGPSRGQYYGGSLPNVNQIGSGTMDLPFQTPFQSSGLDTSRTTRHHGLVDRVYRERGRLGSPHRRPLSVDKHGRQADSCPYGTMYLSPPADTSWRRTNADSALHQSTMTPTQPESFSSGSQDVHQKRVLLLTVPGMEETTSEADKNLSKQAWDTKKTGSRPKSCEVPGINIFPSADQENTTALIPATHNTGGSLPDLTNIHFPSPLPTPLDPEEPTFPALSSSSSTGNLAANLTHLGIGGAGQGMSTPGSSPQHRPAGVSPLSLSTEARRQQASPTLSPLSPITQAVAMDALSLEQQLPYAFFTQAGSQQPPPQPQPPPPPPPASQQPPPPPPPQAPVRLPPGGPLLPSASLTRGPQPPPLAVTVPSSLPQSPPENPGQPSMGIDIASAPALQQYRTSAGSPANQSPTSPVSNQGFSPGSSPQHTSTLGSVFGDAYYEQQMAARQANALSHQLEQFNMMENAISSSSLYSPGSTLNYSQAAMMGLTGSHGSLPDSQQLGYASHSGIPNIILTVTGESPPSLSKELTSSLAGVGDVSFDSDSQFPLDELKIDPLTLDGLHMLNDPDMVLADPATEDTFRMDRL

Sequence of CREB (cyclic adenosine 3',5'-monophosphate response element-binding protein), P16220 (P16220 whole entry): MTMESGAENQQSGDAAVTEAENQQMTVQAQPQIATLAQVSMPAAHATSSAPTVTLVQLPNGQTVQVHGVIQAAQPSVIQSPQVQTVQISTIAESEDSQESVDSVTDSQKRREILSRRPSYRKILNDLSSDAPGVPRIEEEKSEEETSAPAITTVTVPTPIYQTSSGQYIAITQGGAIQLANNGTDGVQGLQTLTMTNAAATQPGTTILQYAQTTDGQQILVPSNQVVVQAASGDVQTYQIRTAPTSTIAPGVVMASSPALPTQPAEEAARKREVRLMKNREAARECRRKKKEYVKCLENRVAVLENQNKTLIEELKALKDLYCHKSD

B1: PAK4 (p21-activated kinase 4) (protein)
chain: MFGKRKKRVEISAPSNFEHRVHTGFDQHEQKFTGLPRQWQSLIEESARRPKPLVDPACITSIQPGAPKTIVRGSKGAKDGALTLLLDEFENMSVTRSNSLRRDSPPPPARARQENGMPEEPATTARGGPGKAGSRGRFAGHSEAGGGSGDRRRAGPEKRPKSSREGSGGPQESSRDKRPLSGPDVGTPQPAGLASGAKLAAGRPFNTYPRADTDHPSRGAQGEPHDVAPNGPSAGGLAIPQSSSSSSRPPTRARGAPSPGVLGPHASEPQLAPPACTPAAPAVPGPPGPRSPQREPQRVSHEQFRAALQLVVDPGDPRSYLDNFIKIGEGSTGIVCIATVRSSGKLVAVKKMDLRKQQRRELLFNEVVIMRDYQHENVVEMYNSYLVGDELWVVMEFLEGGALTDIVTHTRMNEEQIAAVCLAVLQALSVLHAQGVIHRDIKSDSILLTHDGRVKLSDFGFCAQVSKEVPRRKSLVGTPYWMAPELISRLPYGPEVDIWSLGIMVIEMVDGEPPYFNEPPLKAMKMIRDNLPPRLKNLHKVSPSLKGFLDRLLVRDPAQRATAAELLKHPFLAKAGPPASIVPLMRQNRTR
[1]
  phosphorylation of CREB: PAK4 does not induce phosphorylation of CREB
[2]
  phosphorylation of CRTC1 (in vitro kinase assay): PAK4 phosphorylates CRTC1
CRTC1 S151A/S215A
  phosphorylation by PAK4 (kinase analysis of CRTC1 variants): CRTC1^S151A/S215A, was not phosphorylated
CRTC1 S151A/T449A
  phosphorylation by PAK4 (kinase analysis of CRTC1 variants): CRTC1^S151A and CRTC1^S151A/T449A were slightly phosphorylated
CRTC1 S151A
  phosphorylation by PAK4 (kinase analysis of CRTC1 variants): CRTC1^S151A and CRTC1^S151A/T449A were slightly phosphorylated

B2: caPAK4 (PAK4 S445N/S474E, constitutively active PAK4) (protein)
chain: MFGKRKKRVEISAPSNFEHRVHTGFDQHEQKFTGLPRQWQSLIEESARRPKPLVDPACITSIQPGAPKTIVRGSKGAKDGALTLLLDEFENMSVTRSNSLRRDSPPPPARARQENGMPEEPATTARGGPGKAGSRGRFAGHSEAGGGSGDRRRAGPEKRPKSSREGSGGPQESSRDKRPLSGPDVGTPQPAGLASGAKLAAGRPFNTYPRADTDHPSRGAQGEPHDVAPNGPSAGGLAIPQSSSSSSRPPTRARGAPSPGVLGPHASEPQLAPPACTPAAPAVPGPPGPRSPQREPQRVSHEQFRAALQLVVDPGDPRSYLDNFIKIGEGSTGIVCIATVRSSGKLVAVKKMDLRKQQRRELLFNEVVIMRDYQHENVVEMYNSYLVGDELWVVMEFLEGGALTDIVTHTRMNEEQIAAVCLAVLQALSVLHAQGVIHRDIKSDNILLTHDGRVKLSDFGFCAQVSKEVPRRKELVGTPYWMAPELISRLPYGPEVDIWSLGIMVIEMVDGEPPYFNEPPLKAMKMIRDNLPPRLKNLHKVSPSLKGFLDRLLVRDPAQRATAAELLKHPFLAKAGPPASIVPLMRQNRTR
[2]
  substrate of the kinase (kinase analysis): CRTC1 is a substrate of caPAK4
